Here are results for 3 molecules from article PMC9644274.

Experiment in all cases: FRET or BRET; FRET-FLIM in tobacco leaf epidermal cells, transient expression; GFP fusion as donor, mRFP fusion as acceptor; a reduction of the donor's lifetime of 0.2 ns or more is taken as energy transfer
Assay [1] has as its target GFP-PVX-TGB2 (potato virus X).
For assay [2], the target named is GFP-PMTV-TGB2 (potato mop-top virus).
The target of assay [3] is CMV-3a-GFP (cauliflower mosaic virus in p-0009; cucumber mosaic virus in p-0012).
Assay [4] addresses TMV-30k-GFP (tobacco mosaic virus).
For assay [5], the target named is T1, GFP-RTN3 (Arabidopsis thaliana), Q9SH59.
T1 chain: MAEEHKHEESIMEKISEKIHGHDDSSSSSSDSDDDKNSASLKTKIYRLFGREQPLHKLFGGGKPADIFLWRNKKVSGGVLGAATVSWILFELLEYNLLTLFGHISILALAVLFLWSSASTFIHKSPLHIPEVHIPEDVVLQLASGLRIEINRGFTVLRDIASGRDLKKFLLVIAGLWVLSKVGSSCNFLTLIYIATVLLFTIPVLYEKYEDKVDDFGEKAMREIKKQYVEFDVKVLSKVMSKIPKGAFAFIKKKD
The following applies: remark: other sources report otherwise.

B1: mRFP-RTN6 (natural protein)
chain: MAEELEKSMHKEESLMEKIADKIHDHDSSSSSDSEHEKPESPSALKAKIYRLFGREKPVHKVLGGGLPADVFLWRDKKLSASVLGVATAIWVLFELVEYHFLSLVCHILIFALAALFLLSNAHAFMNKTPPKIPEIHIKEEHFLMIVSALRNELNQAFVILRSIALGRDLKKFLMVVFGLWIISVVGNWFNFLTLVYICFVVLHTVPMLYEKHEDKVDPVAEKTLKELKKHYMVFDEKVLSKLPVASLKAKLG
As to B1, the average GFP fluorescence lifetime of the donor with the acceptor in assay [1] stood at 2.08 ns; in assay [2], 2.19 ns; in assay [3], 2.04 ns; in assay [4] it was 2.08 ns. Moreover, the reduction of the GFP lifetime against the donor alone (Δ) in assay [1] is 0.31 ns; in assay [2], 0.22 ns; in assay [3] it was 0.33 ns; in assay [4] it was 0.32 ns.

B2: mRFP-RTN6, Q6DBN4 1-253 (natural protein)
chain: MAEELEKSMHKEESLMEKIADKIHDHDSSSSSDSEHEKPESPSALKAKIYRLFGREKPVHKVLGGGLPADVFLWRDKKLSASVLGVATAIWVLFELVEYHFLSLVCHILIFALAALFLLSNAHAFMNKTPPKIPEIHIKEEHFLMIVSALRNELNQAFVILRSIALGRDLKKFLMVVFGLWIISVVGNWFNFLTLVYICFVVLHTVPMLYEKHEDKVDPVAEKTLKELKKHYMVFDEKVLSKLPVASLKAKLG
In assay [5], B2 came in with an average GFP fluorescence lifetime of the donor with the acceptor of 2.2 ns and a reduction of the GFP lifetime against the donor alone (Δ) of 0.22 ns.

B3: mRFP-RTN3 (natural protein)
chain: MAEEHKHEESIMEKISEKIHGHDDSSSSSSDSDDDKNSASLKTKIYRLFGREQPLHKLFGGGKPADIFLWRNKKVSGGVLGAATVSWILFELLEYNLLTLFGHISILALAVLFLWSSASTFIHKSPLHIPEVHIPEDVVLQLASGLRIEINRGFTVLRDIASGRDLKKFLLVIAGLWVLSKVGSSCNFLTLIYIATVLLFTIPVLYEKYEDKVDDFGEKAMREIKKQYVEFDVKVLSKVMSKIPKGAFAFIKKKD
As for B3, the average GFP fluorescence lifetime of the donor with the acceptor is 2.07 ns in assay [1], 2.12 ns in assay [2], 2.05 ns in assay [3] and 2.09 ns in assay [4]. The reduction of the GFP lifetime against the donor alone (Δ) stood at 0.32 ns in assay [1], 0.29 ns in assay [2], 0.32 ns in assay [3] and 0.31 ns in assay [4].
